T1: mouse Lepr ECD-Fc (mouse, UniProt P48356 22-839, biotin on the AviTag (as SPR ligand))
T1 sequence: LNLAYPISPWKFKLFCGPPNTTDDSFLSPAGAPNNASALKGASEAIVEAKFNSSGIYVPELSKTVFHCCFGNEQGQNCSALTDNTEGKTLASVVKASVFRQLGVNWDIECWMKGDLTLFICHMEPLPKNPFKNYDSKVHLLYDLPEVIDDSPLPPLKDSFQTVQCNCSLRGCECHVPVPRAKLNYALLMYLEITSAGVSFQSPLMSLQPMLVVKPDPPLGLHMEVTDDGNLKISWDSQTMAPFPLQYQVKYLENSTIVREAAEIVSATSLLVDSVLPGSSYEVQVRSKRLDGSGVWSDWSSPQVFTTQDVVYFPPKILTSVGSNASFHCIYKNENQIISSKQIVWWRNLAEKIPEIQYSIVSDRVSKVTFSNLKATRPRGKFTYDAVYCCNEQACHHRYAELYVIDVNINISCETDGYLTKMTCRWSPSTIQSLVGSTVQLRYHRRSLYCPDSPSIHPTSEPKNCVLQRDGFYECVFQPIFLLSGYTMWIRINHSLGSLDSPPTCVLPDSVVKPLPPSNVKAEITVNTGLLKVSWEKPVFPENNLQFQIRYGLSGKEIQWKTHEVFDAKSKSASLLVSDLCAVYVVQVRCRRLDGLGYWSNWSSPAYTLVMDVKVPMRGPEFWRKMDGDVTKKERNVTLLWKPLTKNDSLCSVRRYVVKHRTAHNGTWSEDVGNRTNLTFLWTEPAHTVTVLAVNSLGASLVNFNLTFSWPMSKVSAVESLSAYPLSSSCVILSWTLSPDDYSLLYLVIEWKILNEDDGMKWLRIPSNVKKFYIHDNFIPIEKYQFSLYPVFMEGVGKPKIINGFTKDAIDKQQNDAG

T2: human ISLR2 ECD-Fc (human, UniProt Q6UXK2 19-589, biotin on the AviTag (as SPR ligand))
T2 sequence: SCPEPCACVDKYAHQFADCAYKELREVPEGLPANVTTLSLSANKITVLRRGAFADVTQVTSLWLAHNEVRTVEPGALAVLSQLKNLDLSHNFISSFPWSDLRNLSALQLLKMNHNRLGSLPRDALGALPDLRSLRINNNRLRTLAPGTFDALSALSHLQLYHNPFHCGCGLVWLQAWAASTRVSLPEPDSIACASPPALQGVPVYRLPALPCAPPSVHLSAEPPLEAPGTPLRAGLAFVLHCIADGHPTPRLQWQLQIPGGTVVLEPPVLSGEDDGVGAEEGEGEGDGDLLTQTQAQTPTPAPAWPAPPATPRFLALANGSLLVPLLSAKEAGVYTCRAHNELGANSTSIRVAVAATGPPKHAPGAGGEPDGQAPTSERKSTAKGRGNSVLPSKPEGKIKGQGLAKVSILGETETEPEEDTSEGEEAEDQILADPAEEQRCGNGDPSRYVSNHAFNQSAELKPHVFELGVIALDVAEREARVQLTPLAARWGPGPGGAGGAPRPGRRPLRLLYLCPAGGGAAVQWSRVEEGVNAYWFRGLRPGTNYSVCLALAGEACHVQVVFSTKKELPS

T3: mouse Islr2 ECD-Fc (mouse, UniProt Q5RKR3 20-589, biotin on the AviTag (as SPR ligand))
T3 sequence: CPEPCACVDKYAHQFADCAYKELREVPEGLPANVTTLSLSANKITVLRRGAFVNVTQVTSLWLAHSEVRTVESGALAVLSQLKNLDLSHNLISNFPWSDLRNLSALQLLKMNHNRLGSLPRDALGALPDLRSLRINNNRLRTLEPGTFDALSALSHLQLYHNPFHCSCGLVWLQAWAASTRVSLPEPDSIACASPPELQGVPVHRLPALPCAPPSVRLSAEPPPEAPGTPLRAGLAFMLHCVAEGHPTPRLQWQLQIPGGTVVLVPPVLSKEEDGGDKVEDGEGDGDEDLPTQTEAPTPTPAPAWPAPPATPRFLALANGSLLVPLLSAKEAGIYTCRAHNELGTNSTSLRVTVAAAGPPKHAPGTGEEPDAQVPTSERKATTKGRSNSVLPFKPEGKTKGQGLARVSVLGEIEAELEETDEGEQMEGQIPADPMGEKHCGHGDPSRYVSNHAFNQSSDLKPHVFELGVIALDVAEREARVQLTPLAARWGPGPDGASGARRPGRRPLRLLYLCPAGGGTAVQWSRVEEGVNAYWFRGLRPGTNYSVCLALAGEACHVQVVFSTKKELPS

T4: WFIKKN2-Fc (human, UniProt Q8TEU8 35-576, biotin on the AviTag (as SPR ligand))
T4 sequence: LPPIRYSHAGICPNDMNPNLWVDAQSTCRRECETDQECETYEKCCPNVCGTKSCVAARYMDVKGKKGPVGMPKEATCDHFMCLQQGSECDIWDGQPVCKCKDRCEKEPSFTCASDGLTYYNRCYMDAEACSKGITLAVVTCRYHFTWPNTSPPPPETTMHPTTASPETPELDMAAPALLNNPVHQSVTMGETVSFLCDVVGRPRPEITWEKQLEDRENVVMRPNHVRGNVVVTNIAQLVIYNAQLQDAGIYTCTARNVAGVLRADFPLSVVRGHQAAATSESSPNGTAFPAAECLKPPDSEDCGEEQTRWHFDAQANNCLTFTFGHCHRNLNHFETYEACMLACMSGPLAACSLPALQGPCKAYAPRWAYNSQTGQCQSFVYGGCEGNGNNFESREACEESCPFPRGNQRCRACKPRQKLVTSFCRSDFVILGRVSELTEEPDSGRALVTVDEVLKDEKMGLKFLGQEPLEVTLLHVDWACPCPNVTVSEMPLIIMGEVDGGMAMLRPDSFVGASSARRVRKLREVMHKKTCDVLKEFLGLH

T5: ICAM5 ECD-Fc (human, UniProt Q9UMF0 32-835, biotin on the AviTag (as SPR ligand))
T5 sequence: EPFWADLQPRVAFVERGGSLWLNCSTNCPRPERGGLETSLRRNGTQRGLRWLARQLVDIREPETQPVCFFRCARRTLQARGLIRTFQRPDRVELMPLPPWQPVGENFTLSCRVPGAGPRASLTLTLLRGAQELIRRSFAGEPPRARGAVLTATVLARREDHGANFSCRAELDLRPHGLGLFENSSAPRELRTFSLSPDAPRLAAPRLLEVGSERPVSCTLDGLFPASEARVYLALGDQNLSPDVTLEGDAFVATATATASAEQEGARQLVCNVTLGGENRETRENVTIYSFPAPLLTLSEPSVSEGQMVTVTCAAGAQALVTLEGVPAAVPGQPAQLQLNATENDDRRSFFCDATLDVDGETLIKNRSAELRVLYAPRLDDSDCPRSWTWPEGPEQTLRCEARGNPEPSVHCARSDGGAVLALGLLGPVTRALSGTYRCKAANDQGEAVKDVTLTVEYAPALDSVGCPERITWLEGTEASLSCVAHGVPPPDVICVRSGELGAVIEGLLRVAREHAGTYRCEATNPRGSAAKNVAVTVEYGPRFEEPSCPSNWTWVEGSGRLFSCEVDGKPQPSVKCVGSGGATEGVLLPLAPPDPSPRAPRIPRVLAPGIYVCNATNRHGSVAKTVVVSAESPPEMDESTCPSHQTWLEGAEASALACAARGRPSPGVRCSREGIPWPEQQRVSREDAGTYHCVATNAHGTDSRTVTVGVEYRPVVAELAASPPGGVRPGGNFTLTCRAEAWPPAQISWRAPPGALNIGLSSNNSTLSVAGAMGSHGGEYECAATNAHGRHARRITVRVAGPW


How the values were obtained:
Assay in all cases: SPR
mouse Lepr ECD-Fc = biological target: T1, mouse Lepr ECD-Fc
human ISLR2 ECD-Fc = biological target: T2, human ISLR2 ECD-Fc
mouse Islr2 ECD-Fc = biological target: T3, mouse Islr2 ECD-Fc
LTF-Fc = LTF-Fc (human, UniProt P02788, biotin on the AviTag (as SPR ligand))
Chain of LTF-Fc (P02788 20-710): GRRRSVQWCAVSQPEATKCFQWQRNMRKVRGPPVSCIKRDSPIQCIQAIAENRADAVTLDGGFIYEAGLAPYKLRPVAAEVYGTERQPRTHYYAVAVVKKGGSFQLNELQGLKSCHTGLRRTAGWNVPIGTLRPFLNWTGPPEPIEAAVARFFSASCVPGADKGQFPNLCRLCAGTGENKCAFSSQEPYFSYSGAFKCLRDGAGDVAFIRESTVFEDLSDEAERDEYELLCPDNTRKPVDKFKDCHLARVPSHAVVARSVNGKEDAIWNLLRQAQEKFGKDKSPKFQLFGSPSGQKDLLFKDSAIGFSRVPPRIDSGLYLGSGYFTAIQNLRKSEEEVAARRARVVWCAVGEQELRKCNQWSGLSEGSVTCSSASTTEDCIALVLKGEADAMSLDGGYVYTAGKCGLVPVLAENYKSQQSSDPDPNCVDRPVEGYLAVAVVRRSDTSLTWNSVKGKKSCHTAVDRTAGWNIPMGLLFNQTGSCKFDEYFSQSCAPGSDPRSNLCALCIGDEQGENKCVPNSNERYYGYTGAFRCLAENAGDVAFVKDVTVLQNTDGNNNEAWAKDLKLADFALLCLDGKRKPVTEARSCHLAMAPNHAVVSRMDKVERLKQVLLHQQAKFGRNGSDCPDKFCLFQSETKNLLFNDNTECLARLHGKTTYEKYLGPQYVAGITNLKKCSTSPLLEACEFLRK

WFIKKN2-Fc = biological target: T4, WFIKKN2-Fc
ICAM5 ECD-Fc = biological target: T5, ICAM5 ECD-Fc

binding result (mouse Lepr ECD-Fc) | binding result (human ISLR2 ECD-Fc) | binding result (mouse Islr2 ECD-Fc) | binding result (LTF-Fc) | binding result (WFIKKN2-Fc) | binding result (ICAM5 ECD-Fc) | Binder
binds | binds | binds |  |  |  | Recombinant Mouse Leptin Protein (monomer) (ligand) VPIQKVQDDTKTLIKTIVTRINDISHTQSVSAKQRVTGLDFIPGLHPILSLSKMDQTLAVYQQVLTSLPSQNVLQIANDLENLRDLLHLLAFSKSCSLPQTSGLQKPESLDGVLEASLYSTEVVALSRLQGSLQDILQQLDVSPEC
 | binds |  | binds | binds | binds | IL-6Rα ECD-Fc (Fc fusion, biotin on the AviTag (as SPR ligand)) LAPRRCPAQEVARGVLTSLPGDSVTLTCPGVEPEDNATVHWVLRKPAAGSHPSRWAGMGRRLLLRSVQLHDSGNYSCYRAGRPAGTVHLLVDVPPEEPQLSCFRKSPLSNVVCEWGPRSTPSLTTKAVLLVRKFQNSPAEDFQEPCQYSQESQKFSCQLAVPEGDSSFYIVSMCVASSVGSKFSKTQTFQGCGILQPDPPANITVTAVARNPRWLSVTWQDPHSWNSSFYRLRFELRYRAERSKTFTTWMVKDLQHHCVIHDAWSGLRHVVQLRAQEEFGQGEWSEWSPEAMGTPWTESRSPPAENEVSTPMQALTTNKDDDNILFRDSANATSLPVQDSSSVPLP

— article PMC7440162 (Cell, 2020)
